# Measurements taken from paper PMC10397247.
# Like-named read-outs stand apart in the source and are kept apart here.
# Tests used:
# 4H2948-AA = target: T1, 4H2948-AA; experiment: two-hybrid library CCmax; settings: mean of both orientations;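 also: natural log of median RNA to DNA barcode read ratio; higher means stronger binding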
# T1 chain: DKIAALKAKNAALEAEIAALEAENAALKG
# 4H3029-AA = target: T2, 4H3029-AA; experiment: two-hybrid library CCmax; settings: mean of both orientations;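 also: natural log of median RNA to DNA barcode read ratio; higher means stronger binding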
# T2 chain: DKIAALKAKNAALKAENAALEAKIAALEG
# 4H2742-AA = target: T3, 4H2742-AA; experiment: two-hybrid library CCmax; settings: mean of both orientations;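 also: natural log of median RNA to DNA barcode read ratio; higher means stronger binding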
# T3 chain: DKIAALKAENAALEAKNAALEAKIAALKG
# 4H2713-AA = target: T4, 4H2713-AA; experiment: two-hybrid library CCmax;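 also: natural log of median RNA to DNA barcode read ratio; higher means stronger binding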
# T4 chain: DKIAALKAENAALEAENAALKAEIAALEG
# 4H3591-AA = target: T5, 4H3591-AA; experiment: two-hybrid library CCmax; settings: mean of both orientations;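 also: natural log of median RNA to DNA barcode read ratio; higher means stronger binding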
# T5 chain: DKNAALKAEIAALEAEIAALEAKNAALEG
# 4H3939-AA = target: T6, 4H3939-AA; experiment: two-hybrid library CCmax; settings: mean of both orientations;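 also: natural log of median RNA to DNA barcode read ratio; higher means stronger binding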
# T6 chain: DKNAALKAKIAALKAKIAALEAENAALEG
# 4H428-AA = target: T7, 4H428-AA; experiment: two-hybrid library CCmax; settings: mean of both orientations
# T7 chain: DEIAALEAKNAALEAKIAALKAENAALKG
# 4H478-AA = target: T8, 4H478-AA; experiment: two-hybrid library CCmax; settings: mean of both orientations
# T8 chain: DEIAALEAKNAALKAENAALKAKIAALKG
# 4H3102-AA = target: T9, 4H3102-AA; experiment: two-hybrid library CCmax; settings: mean of both orientations
# T9 chain: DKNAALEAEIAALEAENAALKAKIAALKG
# 4H497-AA = target: T10, 4H497-AA; experiment: two-hybrid library CCmax; settings: mean of both orientations
# T10 chain: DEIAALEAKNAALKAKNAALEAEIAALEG
# 4H3666-AA = target: T11, 4H3666-AA; experiment: two-hybrid library CCmax; settings: mean of both orientations
# T11 chain: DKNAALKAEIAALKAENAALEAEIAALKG
# 4H3446-AA = target: T12, 4H3446-AA; experiment: two-hybrid library CCmax; settings: mean of both orientations
# T12 chain: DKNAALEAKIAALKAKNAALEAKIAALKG
# 4H3920-AA = target: T13, 4H3920-AA; experiment: two-hybrid library CCmax; settings: mean of both orientations
# T13 chain: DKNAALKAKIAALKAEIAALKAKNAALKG
# 4H3417-AA = target: T14, 4H3417-AA; experiment: two-hybrid library CCmax; settings: mean of both orientations
# T14 chain: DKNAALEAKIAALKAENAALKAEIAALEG
# 4H3121-AA = target: T15, 4H3121-AA; experiment: two-hybrid library CCmax; settings: mean of both orientations
# T15 chain: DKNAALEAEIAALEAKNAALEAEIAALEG
# 4H3066-AA = target: T16, 4H3066-AA; experiment: two-hybrid library CCmax; settings: mean of both orientations
# T16 chain: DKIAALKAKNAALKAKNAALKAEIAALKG
# 4H2991-AA = target: T17, 4H2991-AA; experiment: two-hybrid library CCmax; settings: mean of both orientations
# T17 chain: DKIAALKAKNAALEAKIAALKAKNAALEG
# 4H3628-AA = target: T18, 4H3628-AA; experiment: two-hybrid library CCmax; settings: mean of both orientations
# T18 chain: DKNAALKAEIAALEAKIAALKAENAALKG
# 4H391-AA = target: T19, 4H391-AA; experiment: two-hybrid library CCmax; settings: mean of both orientations
# T19 chain: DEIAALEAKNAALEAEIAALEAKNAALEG
# 4H675-AA = target: T20, 4H675-AA; experiment: two-hybrid library CCmax; settings: mean of both orientations
# T20 chain: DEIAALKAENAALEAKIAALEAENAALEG
# 4H971-AA = target: T21, 4H971-AA; experiment: two-hybrid library CCmax; settings: mean of both orientations
# T21 chain: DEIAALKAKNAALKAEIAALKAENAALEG
# 4H3709-AA = target: T22, 4H3709-AA; experiment: two-hybrid library CCmax; settings: mean of both orientations
# T22 chain: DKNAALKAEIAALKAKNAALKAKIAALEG
# 4H656-AA = target: T23, 4H656-AA; experiment: two-hybrid library CCmax; settings: mean of both orientations
# T23 chain: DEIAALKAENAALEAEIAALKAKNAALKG
# zCON9_D = target: T24, zCON9_D; experiment: two-hybrid library CCmax
# T24 chain: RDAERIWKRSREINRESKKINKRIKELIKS
# zCON9_A = target: T25, zCON9_A; experiment: two-hybrid library CCmax
# T25 chain: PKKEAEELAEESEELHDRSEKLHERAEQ
# P9-AA = target: T26, P9-AA; experiment: two-hybrid library CCmax
# T26 chain: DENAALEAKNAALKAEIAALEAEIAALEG
# zCON9_B = target: T27, zCON9_B; experiment: two-hybrid library CCmax
# T27 chain: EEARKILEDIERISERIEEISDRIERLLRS
# O8-bS = target: T28, O8-bS; experiment: two-hybrid library CCNG1
# T28 chain: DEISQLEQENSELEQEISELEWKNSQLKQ
# O9-bS = target: T29, O9-bS; experiment: two-hybrid library CCNG1
# T29 chain: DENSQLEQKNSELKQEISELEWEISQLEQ
# P4-AA = target: T30, P4-AA; experiment: two-hybrid library CCmax
# T30 chain: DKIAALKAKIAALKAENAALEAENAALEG
# P7-AA = target: T31, P7-AA; experiment: two-hybrid library CCmax
# T31 chain: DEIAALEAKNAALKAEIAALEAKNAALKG
# P8-AA = target: T32, P8-AA; experiment: two-hybrid library CCmax
# T32 chain: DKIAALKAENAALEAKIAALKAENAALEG
# 4H584-bN = target: T33, 4H584-bN; experiment: two-hybrid library CCNG1
# T33 chain: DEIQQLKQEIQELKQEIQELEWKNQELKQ
# 4H3817-bN = target: T34, 4H3817-bN; experiment: two-hybrid library CCNG1
# T34 chain: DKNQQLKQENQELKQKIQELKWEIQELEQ
# 4H619-bN = target: T35, 4H619-bN; experiment: two-hybrid library CCNG1
# T35 chain: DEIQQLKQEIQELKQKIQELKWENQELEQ
# 4H906-bN = target: T36, 4H906-bN; experiment: two-hybrid library CCNG1
# T36 chain: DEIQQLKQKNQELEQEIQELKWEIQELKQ
# 4H3858-bN = target: T37, 4H3858-bN; experiment: two-hybrid library CCNG1
# T37 chain: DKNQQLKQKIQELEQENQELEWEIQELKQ
# 4H3974-bN = target: T38, 4H3974-bN; experiment: two-hybrid library CCNG1
# T38 chain: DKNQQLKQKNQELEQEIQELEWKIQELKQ
# 4H850-bN = target: T39, 4H850-bN; experiment: two-hybrid library CCNG1
# T39 chain: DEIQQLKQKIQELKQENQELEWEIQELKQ
# 4H570-bN = target: T40, 4H570-bN; experiment: two-hybrid library CCNG1
# T40 chain: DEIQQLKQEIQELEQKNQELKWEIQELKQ
# P3-AA = target: T41, P3-AA; experiment: two-hybrid library CCmax
# T41 chain: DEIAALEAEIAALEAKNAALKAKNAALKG
# P2-AA = target: T42, P2-AA; experiment: two-hybrid library CCmax
# T42 chain: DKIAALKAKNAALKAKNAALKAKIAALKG
# 4H626-bN = target: T43, 4H626-bN; experiment: two-hybrid library CCNG1
# T43 chain: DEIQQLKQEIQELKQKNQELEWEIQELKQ
# 4H3613-bN = target: T44, 4H3613-bN; experiment: two-hybrid library CCNG1
# T44 chain: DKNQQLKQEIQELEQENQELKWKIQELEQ
# 4H3628-bN = target: T45, 4H3628-bN; experiment: two-hybrid library CCNG1
# T45 chain: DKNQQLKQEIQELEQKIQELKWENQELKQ
# 4H591-bN = target: T46, 4H591-bN; experiment: two-hybrid library CCNG1
# T46 chain: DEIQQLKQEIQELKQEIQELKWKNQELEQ
# 4H3926-bN = target: T47, 4H3926-bN; experiment: two-hybrid library CCNG1
# T47 chain: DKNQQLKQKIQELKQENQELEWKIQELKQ
# 4H687-bN = target: T48, 4H687-bN; experiment: two-hybrid library CCNG1
# T48 chain: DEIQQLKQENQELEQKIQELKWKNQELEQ
# O9-bP = target: T49, O9-bP; experiment: two-hybrid library CCNG1
# T49 chain: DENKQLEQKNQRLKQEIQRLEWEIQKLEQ
binder,measurement,setting,value
DKIAALKAENAALEAENAALKAEIAALEG [4H2713-AA],interaction score,4H2948-AA,-1.84
same,interaction score,4H3029-AA,1.75
same,interaction score,4H2742-AA,-0.508
same,interaction score,4H2713-AA,0.691
same,interaction score,4H3591-AA,-1.25
same,interaction score,4H3939-AA,-1.59
same,interaction score,4H428-AA,-1.87
same,interaction score,4H478-AA,2.27
same,interaction score,4H3102-AA,-0.638
same,interaction score,4H497-AA,0.0354
same,interaction score,4H3666-AA,-1.39
same,interaction score,4H3446-AA,-1.15
same,interaction score,4H3920-AA,-1.61
same,interaction score,4H3417-AA,-1.19
same,interaction score,4H3121-AA,-1.64
same,interaction score,4H3066-AA,1.76
same,interaction score,4H2991-AA,-1.79
same,interaction score,4H3628-AA,-1.22
same,interaction score,4H391-AA,-1.91
same,interaction score,4H675-AA,-1.83
same,interaction score,4H971-AA,-1.57
same,interaction score,4H3709-AA,-1.95
same,interaction score,4H656-AA,-1.66
DENAALEAKNAALKAEIAALEAEIAALEG [P9-AA],interaction score,zCON9_D; mean of both orientations,-1.94
same,interaction score,zCON9_A,-1.13
same,interaction score,P9-AA,-1.97
same,interaction score,zCON9_B,-1.59
DEISQLEQENSELEQEISELEWKNSQLKQ [O8-bS],interaction score,O8-bS,-2.12
same,interaction score,O9-bS,-0.376
DKIAALKAKIAALKAENAALEAENAALEG [P4-AA],interaction score,P4-AA,-2.32
same,interaction score,zCON9_D; mean of both orientations,-3.43
same,interaction score,zCON9_A,-1.68
same,interaction score,P9-AA; mean of both orientations,-1.18
same,interaction score,zCON9_B; mean of both orientations,-1.1
same,interaction score,P7-AA; mean of both orientations,-1.41
same,interaction score,P8-AA; mean of both orientations,-1.82
DENSQLEQKNSELKQEISELEWEISQLEQ [O9-bS],interaction score,O9-bS; mean of both orientations,-1.16
DEIAALEAKNAALKAEIAALEAKNAALKG [P7-AA],interaction score,zCON9_D,-1.95
same,interaction score,zCON9_A,-1.78
same,interaction score,P9-AA; mean of both orientations,-1.14
same,interaction score,zCON9_B; mean of both orientations,-1.46
same,interaction score,P7-AA,-1.79
same,interaction score,P8-AA; mean of both orientations,1.87
DKIAALKAENAALEAKIAALKAENAALEG [P8-AA],interaction score,zCON9_D; mean of both orientations,-1.98
same,interaction score,zCON9_A,-1.74
same,interaction score,P9-AA; mean of both orientations,-0.207
same,interaction score,zCON9_B; mean of both orientations,-1.66
same,interaction score,P8-AA,-1.57
DKNQQLKQENQELKQKIQELKWEIQELEQ [4H3817-bN],interaction score,4H584-bN,-2.15
same,interaction score,4H3817-bN,-0.754
same,interaction score,4H619-bN,-0.743
same,interaction score,4H906-bN,-1.83
same,interaction score,4H3858-bN,-0.555
same,interaction score,4H3974-bN,-0.487
same,interaction score,4H850-bN,-0.947
same,interaction score,4H570-bN,-1.92
DKIAALKAKNAALKAKNAALKAKIAALKG [P2-AA],interaction score,P4-AA; mean of both orientations,-0.357
same,interaction score,zCON9_D; mean of both orientations,-2.05
same,interaction score,zCON9_A; mean of both orientations,-1.98
same,interaction score,P3-AA; mean of both orientations,-1.6
same,interaction score,P9-AA; mean of both orientations,-0.716
same,interaction score,zCON9_B; mean of both orientations,1.28
same,interaction score,P2-AA,-0.878
same,interaction score,P7-AA; mean of both orientations,-1.47
same,interaction score,P8-AA; mean of both orientations,-1.37
DKNQQLKQEIQELEQENQELKWKIQELEQ [4H3613-bN],interaction score,4H626-bN,-1.98
same,interaction score,4H3613-bN,-0.839
same,interaction score,4H3817-bN,-0.783
same,interaction score,4H906-bN,-1.78
same,interaction score,4H3858-bN,-0.655
same,interaction score,4H3628-bN,-1.69
same,interaction score,4H3974-bN,-1.53
same,interaction score,4H591-bN,-0.893
same,interaction score,4H3926-bN,0.45
same,interaction score,4H850-bN,-0.0632
same,interaction score,4H570-bN,-0.737
DEIAALEAEIAALEAKNAALKAKNAALKG [P3-AA],interaction score,P4-AA; mean of both orientations,2.28
same,interaction score,zCON9_D; mean of both orientations,-2.08
same,interaction score,zCON9_A,-1.78
same,interaction score,P3-AA,-1.46
same,interaction score,P9-AA; mean of both orientations,-1.38
same,interaction score,zCON9_B; mean of both orientations,-1.33
same,interaction score,P7-AA; mean of both orientations,-1.27
same,interaction score,P8-AA; mean of both orientations,-0.983
DKNQQLKQEIQELEQKIQELKWENQELKQ [4H3628-bN],interaction score,4H626-bN,-2.08
same,interaction score,4H3817-bN,-1.03
same,interaction score,4H906-bN,0.069
same,interaction score,4H3858-bN,-2.07
same,interaction score,4H687-bN,-0.529
same,interaction score,4H3628-bN,-0.36
same,interaction score,4H3974-bN,-0.134
same,interaction score,4H591-bN,-0.603
same,interaction score,4H3926-bN,-0.307
same,interaction score,4H850-bN,-1.18
same,interaction score,4H570-bN,-1.33
same,interaction score,O9-bP,-0.345
